One assay deals with gbrap_human GABARAP (UniProt O95166).
gbrap_human GABARAP, sequence (O95166 whole entry): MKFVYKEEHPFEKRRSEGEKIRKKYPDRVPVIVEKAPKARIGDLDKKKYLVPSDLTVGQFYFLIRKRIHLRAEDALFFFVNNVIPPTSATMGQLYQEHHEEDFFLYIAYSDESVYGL
Take “Pericentriolar material 1 protein (Homo sapiens), Q15154 D1962A;F1963A;V1966A”: the “effect of a mutation on the interaction” value was “decreasing interaction strength”.

For a further assay the target is unchanged. This is another data set of the same source.
As for “Pericentriolar material 1 protein (Homo sapiens), Q15154 V1964N”, the “effect of a mutation on the interaction” value was “disrupting interaction strength”.

Regarding “Pericentriolar material 1 protein (Homo sapiens), Q15154 V1964P”, the “effect of a mutation on the interaction” value is reported as “disrupting interaction strength”.

Consider “Pericentriolar material 1 protein (Homo sapiens), Q15154 V1964Q”, for which the “effect of a mutation on the interaction” value is reported as “disrupting interaction strength”.

As for “Pericentriolar material 1 protein (Homo sapiens), Q15154 V1964R”, the “effect of a mutation on the interaction” value was “disrupting interaction strength”.

On to “Pericentriolar material 1 protein (Homo sapiens), Q15154 V1964S”, for which the “effect of a mutation on the interaction” value is given as “disrupting interaction strength”.

For the substance “Pericentriolar material 1 protein (Homo sapiens), Q15154 V1964T”, the “effect of a mutation on the interaction” value was “disrupting interaction strength”.

As to “Pericentriolar material 1 protein (Homo sapiens), Q15154 V1964W”, the “effect of a mutation on the interaction” value was “disrupting interaction strength”.

As to “Pericentriolar material 1 protein (Homo sapiens), Q15154 V1964Y”, the “effect of a mutation on the interaction” value is recorded as “decreasing interaction strength”.

On to “Pericentriolar material 1 protein (Homo sapiens), Q15154 V1966A”, for which the “effect of a mutation on the interaction” value is given as “disrupting interaction strength”.

For “Pericentriolar material 1 protein (Homo sapiens), Q15154 V1966C”, the “effect of a mutation on the interaction” value is listed as “disrupting interaction strength”.

Regarding “Pericentriolar material 1 protein (Homo sapiens), Q15154 V1966D”, the “effect of a mutation on the interaction” value is “disrupting interaction strength”.

Turning to “Pericentriolar material 1 protein (Homo sapiens), Q15154 V1966E”, the “effect of a mutation on the interaction” value was “disrupting interaction strength”.

For the substance “Pericentriolar material 1 protein (Homo sapiens), Q15154 V1966F”, the “effect of a mutation on the interaction” value is “with no effect”.

On to “Pericentriolar material 1 protein (Homo sapiens), Q15154 V1966G”, for which the “effect of a mutation on the interaction” value is “disrupting interaction strength”.

Take “Pericentriolar material 1 protein (Homo sapiens), Q15154 V1966H”: the “effect of a mutation on the interaction” value is “disrupting interaction strength”.

Take “Pericentriolar material 1 protein (Homo sapiens), Q15154 V1966I”: the “effect of a mutation on the interaction” value is “with no effect”.

For “Pericentriolar material 1 protein (Homo sapiens), Q15154 V1966K”, the “effect of a mutation on the interaction” value was “disrupting interaction strength”.

Turning to “Pericentriolar material 1 protein (Homo sapiens), Q15154 V1966L”, the “effect of a mutation on the interaction” value was “with no effect”.

Turning to “Pericentriolar material 1 protein (Homo sapiens), Q15154 V1966M”, the “effect of a mutation on the interaction” value was “disrupting interaction strength”.

As to “Pericentriolar material 1 protein (Homo sapiens), Q15154 V1966N”, the “effect of a mutation on the interaction” value is on record as “disrupting interaction strength”.

Consider “Pericentriolar material 1 protein (Homo sapiens), Q15154 V1966P”, for which the “effect of a mutation on the interaction” value is on record as “disrupting interaction strength”.

Turning to “Pericentriolar material 1 protein (Homo sapiens), Q15154 V1966Q”, the “effect of a mutation on the interaction” value is listed as “disrupting interaction strength”.

As for “Pericentriolar material 1 protein (Homo sapiens), Q15154 V1966R”, the “effect of a mutation on the interaction” value is “disrupting interaction strength”.

Consider “Pericentriolar material 1 protein (Homo sapiens), Q15154 V1966S”, for which the “effect of a mutation on the interaction” value was “disrupting interaction strength”.

In the case of “Pericentriolar material 1 protein (Homo sapiens), Q15154 V1966T”, the “effect of a mutation on the interaction” value is “disrupting interaction strength”.

In the case of “Pericentriolar material 1 protein (Homo sapiens), Q15154 V1966W”, the “effect of a mutation on the interaction” value was “disrupting interaction strength”.

For “Pericentriolar material 1 protein (Homo sapiens), Q15154 V1966Y”, the “effect of a mutation on the interaction” value was “decreasing interaction strength”.

The target is the same in a further assay. This is another data set of the same source.
Take “Pericentriolar material 1 protein (Homo sapiens), Q15154 D1962A;F1963A;V1966A”: the “effect of a mutation on the interaction” value is “with no effect”.

The values above are taken from IntAct's records for PubMed 28712572.
